First the molecules themselves.
B1: recombinant RNase D with an N-terminal hexa-histidine tag (enzyme, Caulobacter crescentus (CB15), UniProt Q9A7L8 1-389, looked up)
chain: MKLITTTAELAAFCNGLAGEPFVAVDTEFMRETTYWPKLCLIQVASPTQEAVIDPLADNIDLEPLLVVMRDERILKVFHAARQDVEIFNNLKAMPKPLFDTQVAGMAAGFGEQIAYDALVRQMLRIEIDKSSRFTDWARRPLTDAQLSYALADVTHLAKLFPILRERLETSGRLAWVEEEMTAISDPAAYDVDPEKAWRRLRPRKTAPKYLAVFKAVAAWRERTAQNRDQPRGRILKDEAIDELATQTPGNLEALNNLRGVPKGFGGSKFGPDLLAAIKDALADPEGYAPVVDKPGPPPPQNAGAVVELLKVLLKARAEEAGVASKLIATVSDLEKIAADDNATTPALTGWRREAFGSDALKIKRGELALVLDGARVRVVEVRRAPKND
notes: ribonuclease D; the RNase D gene (cc1704) amplified from C. crescentus (CB15) genomic DNA into pETDuet-1; also called 6xHis-tagged RNase D; not shown: His6, N-terminal, kept
B2: C. crescentus RNase E catalytic domain, residues 1–575, N-terminally 6xHis tagged (domain or fragment, Caulobacter crescentus, UniProt Q9A749 1-575, looked up)
chain: MSKKMLIDAAHAEETRVVVVDGTRVEEFDFESQTRKQLRGNIYLAKVTRVEPSLQAAFIEYGGNRHGFLAFNEIHPDYYQIPVADREALMRDDSGDDEDDTPISRRASGGDDEDDVNGGDRAVDDDDDDVEEELARRKRRLMRKYKIQEVIRRRQIMLVQVVKEERGNKGAALTTYLSLAGRYGVLMPNTARGGGISRKITAVTDRKRLKSVVQSLDVPQGMGLIVRTAGAKRTKAEIKRDYEYLLRLWENIRENTLHSIAPALIYEEEDLVKRAIRDMYDKDLDGIWVEGDAGYKEARDFMRMLMPSQAKKVFNYRDPTPLFVKNKIEDHLAQIYSPVVPLRSGGYLVINQTEALVAIDVNSGKATRERNIEATALKTNCEAAEEAARQLRLRDLAGLIVIDFIDMDEAKNNRTVEKVLKDALKDDRARIQMGKISGFGLMEISRQRRRTGVLEGTTHVCEHCEGTGRVRSVESSALAALRAVEAEALKGSGSVILKVSRSVGLYILNEKRDYLQRLLTTHGLFVSVVVDDSLHAGDQEIERTELGERIAVAPPPFVEEDDDFDPNAYDDEEEE
notes: tetramer by AUC; also called CcNTD
B3: recombinantly expressed and purified RhlB (enzyme, Caulobacter crescentus, UniProt Q9A779 1-517, looked up)
chain: MTEFTDLGLSPTTLQAVADTGYTTATPIQAQAIPVALAGQDVLGIAQTGTGKTAAFTLPLIDRLQSGRAKARMPRALVIAPTRELADQVAASFEKYAKGTKLSWALLIGGVSFGDQEKKLDRGVDVLIATPGRLLDHFERGKLLMTGVQFLVVDEADRMLDMGFIPDIERIFKMTPPKKQTLFFSATMPPEITRLTKQFLRDPVRIEVARPATTNANITQLLVKVPSSDPKAKRLALRALIEKAGIETGIVFCNRKTEVDIVAKSLKVHGYDAAPIHGDLDQTQRMKTLADFRSGALKILVASDVAARGLDIPAVSHVFNYDVPHHADDYVHRIGRTGRAGRTGITYMLVTPADDKGFDKVIKLIGSTPDEEKLDLDYSNAVTVKREGDRKRGGRDRDRGERGERSERPARGRGRGRERAEETVEAPAEAVAEIVDTPAMAEERPARERRPRREREPKAAAPAPTAVEAERPARAERPERPVRGVQPVRDRDDDDRRVVGFGSDVPAFLARPPRGAK
notes: DEAD-box RNA helicase RhlB (cc1847) of Caulobacter crescentus; monomeric in solution; source: recombinantly expressed and purified

Series [1] concerns the target fragment of C. crescentus RNase E containing the S1 and 5′-sensor sub-domains, residues 1–274 (Caulobacter crescentus). Put plainly: AUC; sedimentation velocity of the co-expressed, co-purified CcNTD(1–274)–RhlB complex at 2 mg/ml in 20-mM Tris pH 7.5, 200-mM NaCl, 20°C, 50 000 rpm.
Series [2] concerns the molecule itself. Put plainly: AUC; recombinant RNase D alone; single species of 85.9 kDa.
Series [3] concerns the molecule itself. Put plainly: AUC; sedimentation velocity, CcNTD(1–575) alone at 2 mg/ml in NTD buffer, 20°C, 40 000 rpm.
For series [4], the target named is B2. The experiment in a line: AUC; sedimentation velocity of the SEC fractions of the CcNTD(1–575)–RhlB complex; continuous molar mass distribution. The note with it: both partners purified.

What is called stoichiometry N is a count of units in the complex or per binding partner. On to “RhlB co-expressed with CcNTD_(1–274) (enzyme)”, for which, in series [1], the stoichiometry N was 1.

Consider B1, for which, in series [2], the “stoichiometry N” value turned out to be 2. For the molecule B2, in series [3], the “stoichiometry N” value turned out to be 4. On to B3, for which the “stoichiometry N” value in series [4] is 2 RhlB monomers per CcNTD_(1–575) tetramer.

The values above are taken from article PMC4245959, “Molecular recognition of RhlB and RNase D in the Caulobacter crescentus RNA degradosome” (Nucleic Acids Research, 2014).
